# Reference: PMC8930769
# Molecular target: native human uromodulin (UMOD), full-length, filaments (human) (UniProt P07911)
# Test: cryo-EM structure; purified native UMOD filaments and His-tagged FimHL A27V mixed at a molar ratio of 1:3, 30 min, dialysed against 10 mM Na-HEPES pH 7.0; single-particle cryo-EM, 7.4 Å; FimHL docked into the difference map
substance,measurement,value
His-tagged FimHL A27V from UPEC strain UTI89 (from UniProt Q1R2J4 22-179) (domain or fragment),stoichiometry N,1
